Results: ChEMBL document CHEMBL1143427, “Interactions of ceftobiprole with beta-lactamases from molecular classes A to D” (Antimicrob Agents Chemother, 2007)

Assays:
Details in all cases: Enterobacter cloacae
[1] = substrate: CC1(C)S[C@@H]2[C@H](NC(=O)Cc3ccccc3)C(=O)N2[C@H]1C(=O)O
Description: (§1) Activity of Enterobacter cloacae 4080 AmpC (P99) assessed as drug hydrolysis by spectrophotometry

[2] = substrate: CO/N=C(\C(=O)N[C@@H]1C(=O)N2C(C(=O)[O-])=C(C[N+]3(C)CCCC3)CS[C@H]12)c1csc(N)n1
Description: as §1

[3] = substrate: CC(C)(O/N=C(\C(=O)N[C@@H]1C(=O)N2C(C(=O)[O-])=C(C[n+]3ccccc3)CS[C@H]12)c1csc(N)n1)C(=O)O
Description: (§2) Activity of Enterobacter cloacae 908R AmpC assessed as drug hydrolysis by spectrophotometry

[4] = substrate: CC1(C)S[C@@H]2[C@H](NC(=O)Cc3ccccc3)C(=O)N2[C@H]1C(=O)O; remark: listed apart in the source
Description: as §2

[5] = substrate: CO/N=C(\C(=O)N[C@@H]1C(=O)N2C(C(=O)[O-])=C(C[N+]3(C)CCCC3)CS[C@H]12)c1csc(N)n1; remark: listed apart in the source
Description: as §2

[6] = substrate: Nc1nc(/C(=N/O)C(=O)N[C@@H]2C(=O)N3C(C(=O)O)=C(/C=C4\CCN([C@@H]5CCNC5)C4=O)CS[C@H]23)ns1
Description: as §2

[7] = substrate: O=C(Cc1cccs1)N[C@@H]1C(=O)N2C(C(=O)[O-])=C(C[n+]3ccccc3)CS[C@H]12
Description: as §2

B1: Beta-lactamase (Enterobacter cloacae), P05364 (protein)
chain: MMRKSLCCALLLGISCSALATPVSEKQLAEVVANTITPLMKAQSVPGMAVAVIYQGKPHYYTFGKADIAANKPVTPQTLFELGSISKTFTGVLGGDAIARGEISLDDAVTRYWPQLTGKQWQGIRMLDLATYTAGGLPLQVPDEVTDNASLLRFYQNWQPQWKPGTTRLYANASIGLFGALAVKPSGMPYEQAMTTRVLKPLKLDHTWINVPKAEEAHYAWGYRDGKAVRVSPGMLDAQAYGVKTNVQDMANWVMANMAPENVADASLKQGIALAQSRYWRIGSMYQGLGWEMLNWPVEANTVVEGSDSKVALAPLPVAEVNPPAPPVKASWVHKTGSTGGFGSYVAFIPEKQIGIVMLANTSYPNPARVEAAYHILEALQ
B1 was tested, and the Km [1] was 4.7 µM, the kcat [1] was 32 s⁻¹ and the Km [2] was 67 µM. It also gave a kcat [2] of 0.27 s⁻¹, a Km [3] of 3.5 µM and a kcat [3] of 2.3 s⁻¹. It also gave a Km [4] of 6 µM, a kcat [4] of 53 s⁻¹ and a Km [5] of 16 µM. The kcat [5] was 0.82 s⁻¹, the Km [6] was 12 µM and the kcat [6] was 0.45 s⁻¹. The Km [7] was 360 µM and the kcat [7] was 3200 s⁻¹.
